Experiment: soluble fraction after stress (log2 fold change); higher = more stays soluble; pooled small domains, quantitative proteomics
Details: stress: pH 4
Method in brief: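 Aggregation propensity is read out as the fold change in how much of each domain remains soluble after acid stress. The custom small-domain libraries were pooled, held at pH 4 and analysed with high-throughput quantitative proteomics. On the log2 scale used, higher values mean more of the domain stayed soluble.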
With “HMSAATGIINTDNVNIRSGPATTYDAVGRLNQGSSVEILSSRNDWYQIQANSLKGWVRNDLLNVQK” the “soluble fraction (log2)” value was 0.0683. For “HMSADDLVSRTQAIVAELKDLEGPLLPILHSVQEAFGHVPDEVKPVIAEALNLSRAEVHGVVSFYHDFRAH”, the “soluble fraction (log2)” value was -0.571. For “HMSADIGAEKAKTIALNHAGVSASNAVFLHAKLDYDDGRRTYEVEFYSGSKEYDYEIDAATGEILSYDFD”, the “soluble fraction (log2)” value was 0.327. In the case of “HMSAEAYLSFVKKENLRAAVVNYENNKEWLKDVPHERLLDLAVFAKVDMGEPGMSMKFNNWLLSR”, the “soluble fraction (log2)” value is reported as -1.12. For “HMSAEKDGEWLTLTEAAKHLQVSPHVIRRLIQTGALPAEQVMRGAPHQIRAADLDTDRVKTMIAR”, the “soluble fraction (log2)” value was 0.228. For “HMSAEKPVKSELFYKSMLNSFEQAVRFMIANGILEDFKSRIVAINNETNHQNWFNKQEFNAIIERF”, the “soluble fraction (log2)” value was -0.032. With “HMSAERFDFRIGPELAGKRFDQALAEALPQFSRSRLSTWIKDGRATLNGATMRPKDSVHAGDTVVVNAE” the “soluble fraction (log2)” value was 0.255. In the case of “HMSAEVEVPDVVGRQVALAVQLIETKKLRVNVAETYDAKVPPGQVISQSPEAGMKVKEERVITIYVSR”, the “soluble fraction (log2)” value is reported as 0.153. In the case of “HMSAGISVADVTNRTYDEGYNTLTAQHLLVNKVYEANETIPLDTIIRTDPVAGTKVPDNTSITVYVSSGK”, the “soluble fraction (log2)” value is reported as -0.025. In the case of “HMSAGPQGRTPREDELTVGTKVYVSRVGASGVVSSDVSRGKVVVQVGALRLTAAVSELLLLDG”, the “soluble fraction (log2)” value is reported as -0.472. With “HMSAGYTYQNYQQDLKSGNVQNIHIYLSEEMYSGNVKVIYKNNKSVTFTVTDVTIAEAEARQVGISPIIYE” the “soluble fraction (log2)” value was -0.504. For “HMSAHDLQVVLRWIGTDEPMTDQRYRITTEDGRTFEGRTDDAGLTERVASTIPFGRYSIEALD”, the “soluble fraction (log2)” value was -1. For “HMSAIEIDAEKILNYLTDRGGKMPYGDTTAPEVIKDKFNISKAAFKRALGFLLRSNKIEQIDGWTYI”, the “soluble fraction (log2)” value was -0.375. For “HMSAIKSVTTQLDNTKLRTGPDVSYQYTQSYPANTKLTYINKSGTWYQVKDADGNTGYVASWVVTPSE”, the “soluble fraction (log2)” value was 0.387. For “HMSALIGAHTLERIDSRDFEGVVMAWLPKRDGYDSLYKIYHIEDGDFEELDDREVQAAISLFIEGT”, the “soluble fraction (log2)” value was -0.388. In the case of “HMSAPAMTLDSIRSLLNDRDPWVVTQTVEWLVGLGPQVKTILETLTLESSDAARQAQNALDRINVRNYP”, the “soluble fraction (log2)” value is reported as -1.08. With “HMSAPNPGQMHSWTDTQGRTLQATFIKADATTVTLNWNGRIVPIPLANLNAASQKLARELASAS” the “soluble fraction (log2)” value was -0.0969. With “HMSAPRRGETTAASLNLRAGPATDADILAQLPERTPLRVLQEDGEWLRVETHGNEGFVHRQFVAIPGDEP” the “soluble fraction (log2)” value was -0.347. With “HMSARRHAVKHLDANQLQTRVARMLSEFGLTAKVSKDPNSNALIIDGAPEAQRIAAQLITTIDKE” the “soluble fraction (log2)” value was 0.063. For “HMSASSDATRQRVLRAAEQLFGAKGVENVSLREMTTLAGVNLAAVNYHFGSKDALAEAVFEALSER”, the “soluble fraction (log2)” value was 0.138. With “HMSASSEALKTAVRKVLLNNRMTQDRMARDAGLSGSALSQWLHGKYQGDVPALEGRLAAWLADTQAS” the “soluble fraction (log2)” value was 0.132. In the case of “HMSASSTAPGSVTLRGAILTAWTAAGGERSKMGLPVGYEVRQADGTVTQTFEKGRISVSPTGTATI”, the “soluble fraction (log2)” value is reported as -0.0391. In the case of “HMSAVNLNDDEKAVYKSIKSGIRSLDELSLRTGMKIYELMAITVSLEMKGLVTKSPDGTLDAT”, the “soluble fraction (log2)” value is reported as -0.0308. With “HMSDAKKRAFSKDEILYSLKNRPFTSFDIESLFDDESKKTFIGLLDKGEISEKKVAGTIFYYLR” the “soluble fraction (log2)” value was -0.461. For “HMSDEEAISKLPGVGPAILEKLKEAGYNDIMTIAVDSPKNLAELAEIGEPTAAKIIAAAKKAAD”, the “soluble fraction (log2)” value was -0.109. With “HMSDIDIDVENDRAALAIAGGKLNHLVGARGEVLDALQELTRLAVQTSLGERSRLMLDIDNFRSD” the “soluble fraction (log2)” value was 0.0463. With “HMSDIHARIAAALAALTSPEKIHDLVVDDDGKVSFTFHLTREDPATLVRDARKAVQAVDGVRDVKVNVVDP” the “soluble fraction (log2)” value was 0.00539. For “HMSDKEDIDKYLLTYGDLLFNRTNSSEWVGKTAIYRGEVSAIYAGYLIRIRSFLDAEYLNSVMNSKYA”, the “soluble fraction (log2)” value was -0.485. For “HMSDKTSLTDDDKALINSMLPDYDKYPSVAKLQAVEIAKSSSKMATLLMLDERYNETVSEALE”, the “soluble fraction (log2)” value was -1.14. In the case of “HMSDLGEIEKIVDEVLAENITKVQEYKDGKKGLMGMFMGQIMKKSGGKADPKIANQLLTEKL”, the “soluble fraction (log2)” value is reported as 0.138. With “HMSDNHYLLEIFLADLKSDEKFIRELAIFQLHHHIESDKVRAELKAAAETESDPYLKGMIESLLSSTS” the “soluble fraction (log2)” value was -1.2. For “HMSDNYYSILGIETDATTDMIKRAYRRLSLELHPDRTKDNPILTEKYKKVNEAYGVLNDNDRKHIYDLQNI”, the “soluble fraction (log2)” value was -1.37. With “HMSDPELAIPRVVGLSGNDAQAALVKAGFSAVTVVTVKNSEVTSEQVTHVVPAEGAKAKASTPVTVVVSSS” the “soluble fraction (log2)” value was 0.15. In the case of “HMSDRQLKRQANILYTTRKLASKVGYDGLTMRGLAEASEVSPKTLYNLFSSKDELLAAALEDLVGIV”, the “soluble fraction (log2)” value is reported as 0.0711. With “HMSDTFTITTESGRIDKIITAHETTHTRSQVQKWLQDGLVTVNGNPVKANFKVTAGDVVTVTIPEVK” the “soluble fraction (log2)” value was -0.0373. For “HMSDTMTVTNVKYAIYLRSTPSEASDANIIMEIPVGSKVTYLDTPNNTFYKISYGGTVGYSKQIYLTF”, the “soluble fraction (log2)” value was -0.482. With “HMSDVLPEAILERRLVKKGNRAVPQVLIKWTKLPATSATWEDFYVLQQRFPTALAWGQAPSPGGQM” the “soluble fraction (log2)” value was -0.213. With “HMSDVTPDVVRALRKRLKLTQVQFGEIFGMTSKKVSAWEHGKAEPTEEQKQKIQSLLKENNEQ” the “soluble fraction (log2)” value was 0.141.
